Assay results: patent US9688719B2, “Glycogen synthase kinase-3 inhibitors” (Ramot at Tel-Aviv University Ltd., priority 2011, dated 2017)
Residue numbers refer to the chain shown, from its start. In names and notes the source's numbering stands. Square brackets hold non-standard residues; d marks the D form. Ends that are not written are not given here. * marks the point of attachment. Myristoyl = CCCCCCCCCCCCCC(=O)*; pS = N[C@@H](COP(=O)(O)O)C(=O)O

Legend:
[1] = tested on: GSK-3β mutants Q89A, N95A, R92A, K94A, F93Y and TM (91-93); assay: In vitro kinase assay, inhibition of other GSK-3β mutants; type: biochemical, human; conditions: data not shown
Description: (§1) HEK-293 cells were grown in Dulbecco's Modified Eagle's Medium (DMEM), supplemented with 10% fetal calf serum (FCS), 2 mM glutamine, 100 units/ml penicillin, and 100 μg/ml streptomycin. HEK-293 cells were transiently transfected with indicated constructs, using calcium phosphate method as described [Ilouz et al. (2006) supra]. Cells were lysed in ice-cold buffer G (20 mM Tris-HCl, pH 7.5, 10 mM β-glycerophosphate, 10% glycerol, 1 mM EGTA, 1 mM EDTA, 50 mM NaF, 5 mM sodium pyrophosphate, 0.5 mM orthovanadate, 1 mM benzamidine, 10 μg/ml leupeptin, 5 μg/ml aprotinin, 1 μg/ml pepstatin, and 0.5% Triton X100). Cell extracts were centrifuged for 30 minutes at 15,000×g. […]
(§2) The GSK-3β proteins (WT or mutants) were incubated with indicated substrate in a reaction mixture (50 mM Tris-HCl, pH 7.3, 10 mM magnesium acetate, and 0.01% β-mercaptoethanol) together with 100 μM ^32P[γ-ATP] […] Reactions were stopped by spotting on p81 paper (Whatman) washed with phosphoric acid, and counted for radioactivity as previously described [Ilouz et al. (2006) supra]. In assays from cells overexpressing GSK-3 proteins, the activity of the endogenous GSK-3 that was determined in cells transfected with the pCMV4 vector was subtracted from the activity values obtained for WT and mutants. […]

GSK-3β F93A mutant = target: T1, GSK-3β F93A mutant (Homo sapiens, UniProt P49841, F93A); assay: In vitro kinase assay, inhibition of the F93A mutant; type: biochemical; conditions: FIGS. 2B, 2C
T1 construct: made in house; host or cells: HEK-293 (transient transfection, pCMV4; partial purification on DE-52)
Description: as §1, §2

GSK-3β = GSK-3β (Homo sapiens, UniProt P49841)
Chain of GSK-3β (P49841 1-433 isoform P49841-2): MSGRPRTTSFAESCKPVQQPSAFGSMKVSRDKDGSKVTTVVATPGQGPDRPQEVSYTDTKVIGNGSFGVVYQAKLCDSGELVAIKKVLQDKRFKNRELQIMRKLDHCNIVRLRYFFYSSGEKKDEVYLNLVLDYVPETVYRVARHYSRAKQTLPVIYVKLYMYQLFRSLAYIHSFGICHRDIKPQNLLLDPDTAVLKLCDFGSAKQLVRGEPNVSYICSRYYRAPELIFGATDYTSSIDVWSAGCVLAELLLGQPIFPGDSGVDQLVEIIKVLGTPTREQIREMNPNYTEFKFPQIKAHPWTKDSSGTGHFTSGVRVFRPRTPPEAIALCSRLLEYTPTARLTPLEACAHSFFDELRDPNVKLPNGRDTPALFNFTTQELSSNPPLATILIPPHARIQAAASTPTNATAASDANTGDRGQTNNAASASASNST
Description: (§3) The GSK-3β proteins (WT or mutants) were incubated with indicated substrate in a reaction mixture (50 mM Tris-HCl, pH 7.3, 10 mM magnesium acetate, and 0.01% β-mercaptoethanol) together with 100 μM ^32P[γ-ATP] (0.5 μCi/assay) for 15 minutes. Reactions were stopped by spotting on p81 paper (Whatman) washed with phosphoric acid, and counted for radioactivity as previously described [Ilouz et al. (2006) supra]. In assays from cells overexpressing GSK-3 proteins, the activity of the endogenous GSK-3 that was determined in cells transfected with the pCMV4 vector was subtracted from the activity values obtained for WT and mutants.
Purified GSK-3β was subjected to in vitro kinase assays using pIRS-1, p9CREB, and pGS-1 substrate in the presence or absence of L803-mts (100 μM).

GSK-3 = assay: Inhibition of cellular GSK-3 in SH-SY5Y cells (Western blot); type: cell-based, human; conditions: 20 or 40 μM, 5 hours, FIG. 8
Description: In an additional assay, human neuroblastoma SH-SY5Y cells, were treated with L803-mts (as set forth in SEQ ID NO:5) or L803F-mts (as set forth in SEQ ID NO:12) (20 or 40 μM) for 5 hours. Cells were collected and lysed in ice-cold buffer G (20 mM Tris pH 7.5, 10 mM β-glycerophosphate, 10% glycerol, 1 mM EGTA, 1 mM EDTA, 50 mM NaF, 5 mM sodium pyrophosphate, 0.5 mM orthovanadate, 1 mM benzamidine, 5 μg/ml leupeptin, 25 μg/ml aprotinin, 5 μg/ml pepstatin, and 0.5% Triton X100). Equal amounts of proteins (30 μg) were subjected to gel electrophoresis, transferred to nitrocellulose membranes, and immunoblotted with the anti-β-catenin antibody or anti-phospho-HSF-1 antibody (heat shock factor-1)(ser 303). FIG. 8 presents the β-catenin levels and phosphorylation levels of HSF-1 (ser 303) as determined by Western blot analysis using specific antibodies, with non-treated cells indicated as control (Con).

p9CREB = assay: In vitro kinase assay of GSK-3β mutants with substrate p9CREB; type: biochemical; conditions: mean ± SEM; WT set to 100%
Description: (§4) HEK-293 cells were grown in Dulbecco's Modified Eagle's Medium (DMEM), supplemented with 10% fetal calf serum (FCS), 2 mM glutamine, 100 units/ml penicillin, and 100 μg/ml streptomycin. HEK-293 cells were transiently transfected with indicated constructs, using calcium phosphate method as described [Ilouz et al. (2006) supra]. Cells were lysed in ice-cold buffer G (20 mM Tris-HCl, pH 7.5, 10 mM β-glycerophosphate, 10% glycerol, 1 mM EGTA, 1 mM EDTA, 50 mM NaF, 5 mM sodium pyrophosphate, 0.5 mM orthovanadate, 1 mM benzamidine, 10 μg/ml leupeptin, 5 μg/ml aprotinin, 1 μg/ml pepstatin, and 0.5% Triton X100). Cell extracts were centrifuged for 30 minutes at 15,000×g. Supernatants were collected, and equal amounts of proteins were boiled with SDS sample buffer and subjected to gel electrophoresis (7.5-12% polyacrylamide gel), transferred to nitrocellulose membranes, and immunoblotted with indicated antibodies. For partial purification, cells were lysed in buffer H (20 mM Tris, pH 7.3, 1 mM EGTA, 1 mM EDTA, 1 mM orthovanadate, 25 μg/ml leupeptin, 25 μg/ml aprotinin, and 25 μg/ml pepstatin A, 500 nM microcystine LR, and 0.25% Triton X100). The lysates were centrifuged at 15,000×g. The resulting supernatants were passed through DE-52 (Whatman, Maidstone, England) mini-columns that were equilibrated with buffer H. GSK-3β proteins were eluted with the same buffer containing 0.02 M NaCl. Equal amounts of proteins were used for in vitro kinase assays.
as §3
(§5) The GSK-3β mutants were partially purified by ion exchange chromatography, and their abilities to phosphorylate peptide substrates were tested in in vitro kinase assays. The substrates were: pIRS-1, p9CREB, and pGS-1, phosphorylated peptides derived from the insulin receptor substrate-1 (IRS-1), cAMP responsive element binding protein (CREB), and glycogen synthase, respectively.

pIRS-1 = assay: In vitro kinase assay of GSK-3β mutants with substrate pIRS-1; type: biochemical; conditions: mean ± SEM; WT set to 100%
Description: as §4, §3, §5

[2] = tested on: CREB (serine 129) and N'IRS-1 (serine 332); assay: Phosphorylation of protein substrates in HEK-293 cells expressing GSK-3β WT or F93A; type: cell-based; conditions: forskolin or PMA treated, versus WT-GSK-3β, FIGS. 1E-H
Description: The role of Phe93 in substrate binding by employing a cellular system and protein substrates (i.e., not peptides) was further explored. To this end, the WT-GSK-3β and F93A mutant were expressed in HEK-293 cells together with GSK-3 substrates CREB or N′IRS-1 (the N-terminal region of IRS-1). Because GSK-3 requires pre-phosphorylation of its substrates, the cells were treated with forskolin to enhance CREB phosphorylation via activation of cAMP dependent kinase (PKA), or with phorbol ester (PMA) to enhance N′IRS-1 phosphorylation via activation of protein kinase C (PKC).
The phosphorylation of CREB at serine 129, and N′IRS-1 at serine 332 (both GSK-3 phosphorylation sites) was then examined.
Thus, HEK293 cells were co-transfected with WT-GSK-3β or F93A plasmids together with construct coding for CREB. Cells were treated with forskolin (10 μM, 1 hour), and cell extracts were subjected to Western blot analysis using anti-phospho CREB (Ser 129/133) antibody, as presented in FIG. 1E. Expression levels of CREB and GSK-3 proteins are indicated. Results are means of three independent experiments ±SEM.
A similar assay was conducted using N′IRS-1 cDNA construct instead of CREB, and cells were treated with PMA (100 nM, 30 minutes). Expression levels of N′IRS-1 and GSK-3β are indicated. Results are means of three independent experiments ±SEM.

pGS-1 = assay: In vitro kinase assay of GSK-3β mutants with substrate pGS-1; type: biochemical; conditions: mean ± SEM; WT set to 100%
Description: as §4, §3, §5

Molecule: KEAPPAPPQS(p)P (KEAPPAPPQ[pS]P) [L803]
- inhibition of other GSK-3β mutants [1]: inhibited all other mutants
- inhibition of substrate phosphorylation by F93A (GSK-3β F93A mutant): did not inhibit

Molecule: L803-mts: L803 in which myristic acid was attached to its N-terminal; cell permeable variant (Myristoyl-GKEAPPAPPQ[pS]P)
- competition with substrates pIRS-1, p9CREB, pGS-1 (GSK-3β; purified GSK-3β, 100 μM, FIG. 2A): competes with various substrates
- inhibition of other GSK-3β mutants [1]: inhibit all other mutants
- inhibition of substrate phosphorylation by F93A (GSK-3β F93A mutant): did not inhibit

Molecule: Lys-Glu-Ala-Pro-Pro-Ala-Pro-Pro-Gln-phosphorylated Ser-Pro-Phe [L803F]
- inhibition of substrate phosphorylation at increasing concentrations, compared to L803 (GSK-3β; FIG. 7): improved activity

Molecule: Myristic-Gly-Lys-Glu-Ala-Pro-Pro-Ala-Pro-Pro-Gln-phosphorylated Ser-Pro-Phe (Myristoyl-GKEAPPAPPQ[pS]PF) [L803F-mts]
- phosphorylation levels of HSF-1 (serine 303) (GSK-3): reduced the phosphorylation levels
- β-catenin levels (GSK-3): elevation in β-catenin levels

B1: F93A: GSK-3β mutant, F93 replaced by alanine (protein)
chain: MSGRPRTTSFAESCKPVQQPSAFGSMKVSRDKDGSKVTTVVATPGQGPDRPQEVSYTDTKVIGNGSFGVVYQAKLCDSGELVAIKKVLQDKRAKNRELQIMRKLDHCNIVRLRYFFYSSGEKKDEVYLNLVLDYVPETVYRVARHYSRAKQTLPVIYVKLYMYQLFRSLAYIHSFGICHRDIKPQNLLLDPDTAVLKLCDFGSAKQLVRGEPNVSYICSRYYRAPELIFGATDYTSSIDVWSAGCVLAELLLGQPIFPGDSGVDQLVEIIKVLGTPTREQIREMNPNYTEFKFPQIKAHPWTKDSSGTGHFTSGVRVFRPRTPPEAIALCSRLLEYTPTARLTPLEACAHSFFDELRDPNVKLPNGRDTPALFNFTTQELSSNPPLATILIPPHARIQAAASTPTNATAASDANTGDRGQTNNAASASASNST
modifications: GSK-3 beta, F93A mutant
notes: GSK-3β mutant, F93 replaced by alanine
- Substrate phosphorylation (% of WT GSK-3β), p9CREB (p9CREB): 46 ± 2 % of WTGSK-3β
- Substrate phosphorylation (% of WT GSK-3β), pIRS-1 (pIRS-1): 42 ± 13 % of WTGSK-3β
- phosphorylation of CREB and N'IRS-1 in cells [2]: did not enhance the phosphorylation
- Substrate phosphorylation (% of WT GSK-3β), pGS-1 (pGS-1): 13 ± 7 % of WTGSK-3β

B2: K94A: GSK-3β mutant, K94 replaced by alanine (protein)
chain: B1 chain with A93F, K94A
modifications: GSK-3 beta, K94A mutant
notes: GSK-3β mutant, K94 replaced by alanine
- Substrate phosphorylation (% of WT GSK-3β), p9CREB (p9CREB): 71 ± 4 % of WTGSK-3β
- Substrate phosphorylation (% of WT GSK-3β), pIRS-1 (pIRS-1): 52 ± 19 % of WTGSK-3β
- Substrate phosphorylation (% of WT GSK-3β), pGS-1 (pGS-1): 19 ± 14 % of WTGSK-3β

B3: D90A: GSK-3β mutant, D90 replaced by alanine (protein)
chain: B1 chain with D90A, A93F
modifications: GSK-3 beta, D90A mutant
notes: GSK-3β mutant, D90 replaced by alanine
- Substrate phosphorylation (% of WT GSK-3β), p9CREB (p9CREB): 92 ± 21 % of WTGSK-3β
- Substrate phosphorylation (% of WT GSK-3β), pIRS-1 (pIRS-1): 88 ± 15 % of WTGSK-3β
- Substrate phosphorylation (% of WT GSK-3β), pGS-1 (pGS-1): 83 ± 2 % of WTGSK-3β

B4: K91A: GSK-3β mutant, K91 replaced by alanine (protein)
chain: B1 chain with K91A, A93F
modifications: GSK-3 beta, K91A mutant
notes: GSK-3β mutant, K91 replaced by alanine
- Substrate phosphorylation (% of WT GSK-3β), p9CREB (p9CREB): 161 ± 5 % of WTGSK-3β
- Substrate phosphorylation (% of WT GSK-3β), pIRS-1 (pIRS-1): 140 ± 18 % of WTGSK-3β
- Substrate phosphorylation (% of WT GSK-3β), pGS-1 (pGS-1): 119 ± 5 % of WTGSK-3β

B5: R92A: GSK-3β mutant, R92 replaced by alanine (protein)
chain: B1 chain with R92A, A93F
modifications: GSK-3 beta, R92A mutant
notes: GSK-3β mutant, R92 replaced by alanine
- Substrate phosphorylation (% of WT GSK-3β), p9CREB (p9CREB): 49 ± 19 % of WTGSK-3β
- Substrate phosphorylation (% of WT GSK-3β), pIRS-1 (pIRS-1): 60 ± 3 % of WTGSK-3β
- Substrate phosphorylation (% of WT GSK-3β), pGS-1 (pGS-1): 41 ± 14 % of WTGSK-3β
